Experimental data taken from paper PMC3024981, “It Takes Two to Tango: Defining an Essential Second Active Site in Pyridoxal 5′-Phosphate Synthase” (PLoS ONE, 2011).
Positions count from the first letter of the chain named. Names and notes keep the numbering of the source. Values joined by “and” are separate entries in the source; they are usually repeats but may differ in a detail not shown here. Equal values may be shown once.

T1: Pdx1 R288K (Bacillus subtilis), native (untagged) (Bacillus subtilis, UniProt P37527 1-294, R288K)
T1 construct: Pdx1, synthase subunit of PLP synthase, Bacillus subtilis; also called Pdx1 R288K mutein; source: site directed mutagenesis of Pdx1; expressed and purified as described by Raschle et al. (2005)
T1 sequence: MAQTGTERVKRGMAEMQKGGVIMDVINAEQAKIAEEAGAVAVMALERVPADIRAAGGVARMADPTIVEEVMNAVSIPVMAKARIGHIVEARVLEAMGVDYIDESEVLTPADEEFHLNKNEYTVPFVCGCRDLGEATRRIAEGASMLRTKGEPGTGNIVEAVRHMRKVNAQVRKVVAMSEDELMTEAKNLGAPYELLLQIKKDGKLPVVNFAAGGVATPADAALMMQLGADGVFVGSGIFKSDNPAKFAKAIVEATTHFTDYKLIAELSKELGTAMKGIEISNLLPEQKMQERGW

B1: PLP synthase (Pdx1 + Pdx2), native Pdx1 (Bacillus subtilis subsp. subtilis str. 168) (protein)
chain: AQTGTERVKRGMAEMQKGGVIMDVINAEQAKIAEEAGAVAVMALERVPADIRAAGGVARMADPTIVEEVMNAVSIPVMAKARIGHIVEARVLEAMGVDYIDESEVLTPADEEFHLNKNEYTVPFVCGCRDLGEATRRIAEGASMLRTKGEPGTGNIVEAVRHMRKVNAQVRKVVAMSEDELMTEAKNLGAPYELLLQIKKDGKLPVVNFAAGGVATPADAALMMQLGADGVFVGSGIFKSDNPAKFAKAIVEATTHFTDYKLIAELSKELGTAMKGIEISNLLPEQRMQERGW
notes: complex of untagged Pdx1 with Pdx2; 24-subunit complex; with Pyridoxal 5'-phosphate synthase subunit PdxT
B2: Pdx2 (glutaminase, activated by Pdx1) (Bacillus subtilis subsp. subtilis str. 168) (protein)
chain: MLTIGVLGLQGAVREHIHAIEACGAAGLVVKRPEQLNEVDGLILPGGESTTMRRLIDTYQFMEPLREFAAQGKPMFGTCAGLIILAKEIAGSDNPHLGLLNVVVERNSFGRQVDSFEADLTIKGLDEPFTGVFIRAPHILEAGENVEVLSEHNGRIVAAKQGQFLGCSFHPELTEDHRVTQLFVEMVEEYKQKALV
notes: Pdx2 with untagged wild-type Pdx1; with Pyridoxal 5'-phosphate synthase subunit PdxS
B3: PLP synthase (Pdx1-His6 + Pdx2) (Bacillus subtilis subsp. subtilis str. 168) (protein)
chain: B1 chain
notes: complex of C-terminally hexahistidine-tagged Pdx1 with Pdx2-His6; with Pyridoxal 5'-phosphate synthase subunit PdxT
B4: PLP synthase (Pdx1-His6 + Pdx2) (Bacillus subtilis subsp. subtilis str. 168; R138A) (protein)
chain: B1 chain with R137A
notes: as for B3
B5: PLP synthase (Pdx1-His6 + Pdx2) (Bacillus subtilis subsp. subtilis str. 168; H115A) (protein)
chain: B1 chain with H114A
notes: as for B3
B6: PLP synthase (Pdx1-His6 + Pdx2) (Bacillus subtilis subsp. subtilis str. 168; K187A) (protein)
chain: B1 chain with K186A
notes: as for B3
B7: PLP synthase (Pdx1-His6 + Pdx2) (Bacillus subtilis subsp. subtilis str. 168; H115A/R138A) (protein)
chain: B1 chain with H114A, R137A
notes: as for B3
B8: PLP synthase (Pdx1-His6 + Pdx2) (Bacillus subtilis subsp. subtilis str. 168; E105D) (protein)
chain: B1 chain with E104D
notes: as for B3
B9: Pdx1 wild type (Bacillus subtilis), native (untagged) (enzyme)
chain: T1 sequence with K288R
notes: Pdx1, synthase subunit of PLP synthase, Bacillus subtilis; construct pETBsPdx1 of Raschle et al. (2005); Native means untagged; Dodecamer by SEC-MALS; also called BsPdx1 wild type; PLP synthase synthase subunit; source: construct pETBsPdx1; expressed and purified as described by Raschle et al. (2005); copies: 12
B10: Pdx1 R288A (Bacillus subtilis), native (untagged) (enzyme)
chain: T1 sequence with K288A
notes: Pdx1, synthase subunit of PLP synthase, Bacillus subtilis; also called Pdx1 R288A mutein; source: site directed mutagenesis of Pdx1; expressed and purified as described by Raschle et al. (2005); copies: 12
B11: Pdx1 K187A (Bacillus subtilis), hexahistidine tagged (enzyme)
chain: T1 sequence with K187A, K288R
notes: Pdx1, synthase subunit of PLP synthase, Bacillus subtilis; parent construct pETBsPdx1-His6 of Strohmeier et al. (2006); It is in a dodecamer:hexamer equilibrium by SEC-MALS; also called Pdx1 K187A mutein; source: site directed mutagenesis of Pdx1; expressed and purified as described by Raschle et al. (2005); not shown: His6, C-terminal, kept
B12: Pdx2 H170N (Bacillus subtilis), catalytically inert mutein (enzyme, UniProt P37528 1-196, looked up)
chain: B2 chain with H170N
notes: Pdx2, glutaminase subunit of PLP synthase, Bacillus subtilis; It was used together with glutamine (Michaelis complex of Pdx2 H170N and glutamine); also called Pdx2-His6 H170N; Pdx2 H170N mutein; source: construct Pdx2-His6 H170N of Strohmeier et al. (2006); expressed and purified as described by Raschle et al. (2005)

Legend:
Pdx1 = molecular target: T2, Pdx1 (Bacillus subtilis, UniProt P37527); assay: ESI-MS (+[…] Da after NaBH4 reduction), tryptic peptide MALDI-TOF/TOF; type: biochemical; conditions: covalent Schiff base at K149 (P2 site); PLP made de novo from R5P, DL-G3P and ammonium sulfate
T2 construct: gene pdxS; full-length Pdx1 alone, native (untagged) from pETBsPdx1; dodecamer

purified protein = substrate: O=CC(O)COP(=O)(O)O; assay: purified protein; type: biochemical, Bacillus subtilis; conditions: R5P and glutamine as co-substrates, 50 mM Tris-Cl pH 7.5, 37°C
[1] = substrate: NC(=O)CC[C@H](N)C(=O)O; assay: coupled glutaminase assay; type: biochemical, Bacillus subtilis; conditions: activated by wild-type Pdx1, 50 mM Tris-Cl pH 7.5, 37°C
From the text: coupled glutaminase assay on Pdx2 (glutaminase, activated by Pdx1)

[2] = molecular target: the molecule itself; assay: SEC-MALS; Superdex 200 10/300 GL, 100 µl at 1 mg/ml; 50 mM potassium phosphate pH 7.5, 50 mM potassium chloride, 0.01% sodium azide; miniDAWN TREOS; dodecamer to hexamers
[3] = molecular target: B10; assay: other fluorescence titration; intrinsic protein fluorescence of Pdx1 titrated with increasing concentrations of Pdx2 H170N in the presence of glutamine, without R5P; decrease in fluorescence intensity; done as described in ref. 21; conditions: both partners purified
[4] = molecular target: B9; assay: as above; conditions: both partners purified
[5] = molecular target: T1, Pdx1 R288K (Bacillus subtilis), native …; assay: as above; conditions: both partners purified

Molecule | Km (purified protein; His-tagged proteins) | kcat (purified protein; His-tagged proteins) | kcat/Km (purified protein; His-tagged proteins) | further results
Cc1ncc(COP(=O)(O)O)c(C=O)c1O [pyridoxal 5′-phosphate] |  |  |  | ESI-MS (+231 Da after NaBH4 reduction), tryptic peptide MALDI-TOF/TOF (Pdx1): demonstrate that PLP is covalently bound to Pdx1
B1 |  |  |  | Km (purified protein): 186 ± 17 µM; kcat (purified protein): 0.00055 ± 3.3e-05 s⁻¹; kcat/Km (purified protein): 2.95 M⁻¹ s⁻¹
B2 |  |  |  | Km [1]: 1160 ± 180 µM; kcat [1]: 0.0295 ± 0.00133 s⁻¹; kcat/Km [1]: 25.5 M⁻¹ s⁻¹
B3 | 155 ± 23 µM | 0.0006 ± 8.3e-05 s⁻¹ | 3.87 M⁻¹ s⁻¹ | 
B4 | 262 ± 26 µM | 0.0002 ± 1.7e-05 s⁻¹ | 0.767 M⁻¹ s⁻¹ | 
B5 | 229 ± 55 µM | 0.00013 ± 0 s⁻¹ | 0.583 M⁻¹ s⁻¹ | 
B6 | 267 ± 18 µM | 0.0005 ± 1.7e-05 s⁻¹ | 1.87 M⁻¹ s⁻¹ | 
B7 | 307 ± 75 µM | 0.0001 ± 0 s⁻¹ | 0.333 M⁻¹ s⁻¹ | 
B8 | 249 ± 26 µM | 0.000233 ± 1.7e-05 s⁻¹ | 0.933 M⁻¹ s⁻¹ | 
B9 |  |  |  | stoichiometry N [2]: 12
B10 |  |  |  | stoichiometry N [2]: 12
B11 |  |  |  | stoichiometry N [2]: 12 and 6
B12 |  |  |  | binding result [3]: binds; binding result [4]: binds; binding result [5]: binds
